The record followed here is patent publication EP3916006A1.

One assay has as its target GPR93 (UniProt Q149R9). In words: cell-based or functional assay.
A further assay deals with calcium sensing receptor (UniProt Q9QY96). In words: cell-based or functional assay.
Chain of UniProt Q9QY96 (Q9QY96 20-1079 limits assumed): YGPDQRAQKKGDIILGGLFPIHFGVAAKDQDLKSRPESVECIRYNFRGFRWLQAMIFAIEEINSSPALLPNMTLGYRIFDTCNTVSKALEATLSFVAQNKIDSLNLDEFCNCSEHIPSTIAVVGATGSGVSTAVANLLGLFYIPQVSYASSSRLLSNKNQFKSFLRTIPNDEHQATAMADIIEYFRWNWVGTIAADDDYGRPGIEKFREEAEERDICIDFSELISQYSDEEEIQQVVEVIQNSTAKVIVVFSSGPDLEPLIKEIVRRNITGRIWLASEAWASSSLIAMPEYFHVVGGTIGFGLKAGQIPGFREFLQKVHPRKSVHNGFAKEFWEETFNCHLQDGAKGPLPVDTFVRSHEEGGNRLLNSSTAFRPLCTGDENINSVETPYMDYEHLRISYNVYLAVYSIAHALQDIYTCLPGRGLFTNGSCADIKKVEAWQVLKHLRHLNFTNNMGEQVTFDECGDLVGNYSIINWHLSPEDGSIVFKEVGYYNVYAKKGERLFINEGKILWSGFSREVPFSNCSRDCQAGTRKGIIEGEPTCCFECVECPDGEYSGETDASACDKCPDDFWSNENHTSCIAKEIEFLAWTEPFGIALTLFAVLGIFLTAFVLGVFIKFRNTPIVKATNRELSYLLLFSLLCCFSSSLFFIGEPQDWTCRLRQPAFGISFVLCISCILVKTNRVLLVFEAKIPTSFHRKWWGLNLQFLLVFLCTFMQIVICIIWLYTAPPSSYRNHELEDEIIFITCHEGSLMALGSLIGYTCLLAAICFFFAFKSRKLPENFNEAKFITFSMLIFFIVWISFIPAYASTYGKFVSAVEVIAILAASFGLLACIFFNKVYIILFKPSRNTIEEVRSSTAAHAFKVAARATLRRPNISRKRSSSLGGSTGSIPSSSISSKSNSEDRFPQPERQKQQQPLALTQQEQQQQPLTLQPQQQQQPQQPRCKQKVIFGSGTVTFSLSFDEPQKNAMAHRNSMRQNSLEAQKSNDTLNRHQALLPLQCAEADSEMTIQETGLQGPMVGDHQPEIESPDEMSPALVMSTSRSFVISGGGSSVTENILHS

Chain of UniProt Q149R9 (Q149R9 whole entry): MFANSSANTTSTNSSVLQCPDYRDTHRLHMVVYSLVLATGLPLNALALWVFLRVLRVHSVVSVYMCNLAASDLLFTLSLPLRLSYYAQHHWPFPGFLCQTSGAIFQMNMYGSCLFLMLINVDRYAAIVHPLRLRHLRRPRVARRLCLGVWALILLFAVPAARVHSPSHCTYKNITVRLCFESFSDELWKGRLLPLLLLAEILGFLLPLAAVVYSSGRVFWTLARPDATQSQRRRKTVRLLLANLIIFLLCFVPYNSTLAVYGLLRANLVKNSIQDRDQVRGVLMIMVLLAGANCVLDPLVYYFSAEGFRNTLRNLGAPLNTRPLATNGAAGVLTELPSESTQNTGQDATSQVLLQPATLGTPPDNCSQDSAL

“synthetic peptide SEQ ID NO: 5 90RYLGYLE96, derived from αs1-casein” came in with a CCK secretion by STC-1 cells (ELISA), peptide at 0.125 mM with TC LPA5 4 at 4 µM (198 pM with vehicle) with GPR93 of 111 pM. Further, the CCK secretion by STC-1 cells (ELISA), peptide at 0.125 mM with NPS2143 at 6 µM (198 pM with vehicle) in the assay with calcium sensing receptor was 88 pM.
